{"source": "patent US7648964B2", "about": "“Use of lacritin in promoting ocular cell survival” (University of Virginia Patent Foundation, priority 2004, dated 2010)", "molecules": {"B1": {"name": "lacritin: recombinant human lacritin from E. coli; mature 119 residue fragment (SEQ ID NO:10) of native lacritin SEQ ID NO:4 (protein, listed as Homo sapiens)", "chain": "EDASSDSTGADPAQEAGTSKPNEEISGPAEPASPPETTTTAQETSAAAVQGTAKVTSSRQELNPLKSIVEKSILLTEQALAKAGKGMHGGVPGGKQFIENGSEFAQKLLKKFSLLKPWA"}}, "key": {"collagen I": {"biological_target": "collagen I (Homo sapiens, UniProt P02452+P08123)", "sequence (P02452 162-1218 limits assumed)": "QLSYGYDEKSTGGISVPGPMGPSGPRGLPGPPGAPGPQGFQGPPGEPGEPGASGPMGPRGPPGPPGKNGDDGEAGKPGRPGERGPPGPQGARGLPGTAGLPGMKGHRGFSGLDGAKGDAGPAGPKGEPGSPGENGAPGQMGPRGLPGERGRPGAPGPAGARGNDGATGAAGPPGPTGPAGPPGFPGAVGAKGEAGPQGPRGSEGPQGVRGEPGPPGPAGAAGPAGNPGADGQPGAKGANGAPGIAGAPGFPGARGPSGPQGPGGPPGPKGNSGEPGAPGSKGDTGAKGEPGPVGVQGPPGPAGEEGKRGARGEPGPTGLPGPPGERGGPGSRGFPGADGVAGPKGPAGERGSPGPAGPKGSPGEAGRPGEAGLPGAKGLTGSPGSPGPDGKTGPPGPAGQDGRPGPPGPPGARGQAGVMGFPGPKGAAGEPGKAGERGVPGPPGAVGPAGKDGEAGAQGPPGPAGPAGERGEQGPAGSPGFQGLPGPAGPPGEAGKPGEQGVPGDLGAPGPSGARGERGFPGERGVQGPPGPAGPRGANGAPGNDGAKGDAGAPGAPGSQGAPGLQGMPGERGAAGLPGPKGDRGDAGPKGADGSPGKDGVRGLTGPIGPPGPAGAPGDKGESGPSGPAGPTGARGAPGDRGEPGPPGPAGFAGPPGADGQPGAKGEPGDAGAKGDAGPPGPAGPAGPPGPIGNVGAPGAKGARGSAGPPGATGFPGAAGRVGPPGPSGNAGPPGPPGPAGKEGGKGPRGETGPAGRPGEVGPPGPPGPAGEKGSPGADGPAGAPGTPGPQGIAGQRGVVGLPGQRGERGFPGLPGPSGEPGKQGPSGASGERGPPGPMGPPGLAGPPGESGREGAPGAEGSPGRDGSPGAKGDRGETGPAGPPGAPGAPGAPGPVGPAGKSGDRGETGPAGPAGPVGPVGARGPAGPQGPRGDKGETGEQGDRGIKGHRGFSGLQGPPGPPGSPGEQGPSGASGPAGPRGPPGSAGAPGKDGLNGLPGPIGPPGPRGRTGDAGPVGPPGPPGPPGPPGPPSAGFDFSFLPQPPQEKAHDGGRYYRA", "sequence (P08123 80-1119 limits assumed)": "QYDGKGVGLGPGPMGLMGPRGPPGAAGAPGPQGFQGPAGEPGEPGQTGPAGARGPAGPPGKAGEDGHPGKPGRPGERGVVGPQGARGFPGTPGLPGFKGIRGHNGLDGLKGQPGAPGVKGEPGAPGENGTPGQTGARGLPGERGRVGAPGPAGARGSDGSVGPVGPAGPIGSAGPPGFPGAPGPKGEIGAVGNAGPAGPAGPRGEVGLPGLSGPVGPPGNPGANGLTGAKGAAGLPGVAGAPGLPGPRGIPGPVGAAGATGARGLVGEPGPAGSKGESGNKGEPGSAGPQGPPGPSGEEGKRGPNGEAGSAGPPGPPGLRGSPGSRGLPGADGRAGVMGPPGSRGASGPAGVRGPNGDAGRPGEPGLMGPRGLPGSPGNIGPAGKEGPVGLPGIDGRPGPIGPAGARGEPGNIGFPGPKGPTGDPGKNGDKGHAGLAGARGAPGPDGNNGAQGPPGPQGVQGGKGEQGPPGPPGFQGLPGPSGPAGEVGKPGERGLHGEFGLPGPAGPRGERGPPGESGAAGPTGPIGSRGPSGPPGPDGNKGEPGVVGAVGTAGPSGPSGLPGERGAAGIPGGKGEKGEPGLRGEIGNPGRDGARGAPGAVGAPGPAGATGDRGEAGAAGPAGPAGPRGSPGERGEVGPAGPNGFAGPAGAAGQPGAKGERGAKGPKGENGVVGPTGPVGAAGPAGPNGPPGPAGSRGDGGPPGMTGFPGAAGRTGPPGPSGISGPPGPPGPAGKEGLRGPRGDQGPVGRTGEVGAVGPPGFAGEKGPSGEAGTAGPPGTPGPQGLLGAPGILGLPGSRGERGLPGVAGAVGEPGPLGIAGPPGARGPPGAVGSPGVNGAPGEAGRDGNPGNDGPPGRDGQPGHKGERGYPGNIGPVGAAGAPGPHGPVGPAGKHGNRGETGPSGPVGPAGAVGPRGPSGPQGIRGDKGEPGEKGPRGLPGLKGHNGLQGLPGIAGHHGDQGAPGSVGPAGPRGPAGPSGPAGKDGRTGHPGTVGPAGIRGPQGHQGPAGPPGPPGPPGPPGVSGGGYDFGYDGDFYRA", "test": "ECM binding ELISA", "settings": "0-30 nM lacritin", "experimental": "(§1) Binding studies were carried out in 96 well plates coated with 10 μg/well of collagen IV, laminin-1, entactin/nidogen-1, collagen I, fibronectin, vitronectin, EGF, heparin or BMS. Wells were washed, blocked (PBS-T), incubated with 0-30 nM lacritin (in PBS-T containing 1% BSA) for 1 hr (4° C.), washed and detected with anti-lacritin antibody (1/1000) by ELISA."}, "collagen IV": {"system": "collagen IV", "test": "ECM binding ELISA", "settings": "0-30 nM lacritin", "experimental": "as §1"}, "laminin-1": {"system": "laminin-1", "test": "ECM binding ELISA", "settings": "0-30 nM lacritin", "experimental": "as §1"}, "nidogen/entactin": {"biological_target": "T1, nidogen/entactin (Homo sapiens, UniProt P14543)", "T1 sequence (P14543 29-1247)": "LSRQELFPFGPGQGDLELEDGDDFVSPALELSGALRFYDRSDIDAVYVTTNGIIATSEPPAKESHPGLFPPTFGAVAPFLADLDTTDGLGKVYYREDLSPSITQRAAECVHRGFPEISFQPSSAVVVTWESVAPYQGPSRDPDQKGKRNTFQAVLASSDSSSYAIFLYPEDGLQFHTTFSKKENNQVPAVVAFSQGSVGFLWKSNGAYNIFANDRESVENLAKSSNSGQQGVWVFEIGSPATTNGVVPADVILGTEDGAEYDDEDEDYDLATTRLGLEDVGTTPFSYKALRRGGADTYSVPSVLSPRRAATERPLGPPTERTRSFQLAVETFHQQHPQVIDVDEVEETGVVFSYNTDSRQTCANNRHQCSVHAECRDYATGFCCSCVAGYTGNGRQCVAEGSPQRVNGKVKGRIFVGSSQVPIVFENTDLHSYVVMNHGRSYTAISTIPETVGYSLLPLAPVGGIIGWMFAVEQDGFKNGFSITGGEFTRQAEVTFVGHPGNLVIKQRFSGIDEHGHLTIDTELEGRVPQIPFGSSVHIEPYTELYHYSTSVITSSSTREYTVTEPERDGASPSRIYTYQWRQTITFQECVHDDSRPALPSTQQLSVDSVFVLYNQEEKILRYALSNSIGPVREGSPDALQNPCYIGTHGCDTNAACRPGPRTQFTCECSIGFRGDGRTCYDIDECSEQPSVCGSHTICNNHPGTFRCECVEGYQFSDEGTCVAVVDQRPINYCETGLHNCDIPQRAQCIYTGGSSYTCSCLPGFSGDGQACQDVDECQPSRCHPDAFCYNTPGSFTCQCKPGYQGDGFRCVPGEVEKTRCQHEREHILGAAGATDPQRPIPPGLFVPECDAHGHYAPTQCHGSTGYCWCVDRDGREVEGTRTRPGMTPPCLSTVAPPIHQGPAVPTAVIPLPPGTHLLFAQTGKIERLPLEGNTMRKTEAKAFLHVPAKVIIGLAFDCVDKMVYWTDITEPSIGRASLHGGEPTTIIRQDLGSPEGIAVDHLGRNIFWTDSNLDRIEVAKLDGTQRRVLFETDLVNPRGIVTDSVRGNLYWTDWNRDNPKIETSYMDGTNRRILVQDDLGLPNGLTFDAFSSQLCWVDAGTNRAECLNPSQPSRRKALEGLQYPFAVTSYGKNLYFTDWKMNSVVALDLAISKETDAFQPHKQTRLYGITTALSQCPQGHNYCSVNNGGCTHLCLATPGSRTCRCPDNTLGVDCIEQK", "test": "ECM binding ELISA", "settings": "0-30 nM lacritin", "experimental": "as §1"}, "vitronectin": {"biological_target": "T2, vitronectin (Homo sapiens, UniProt P04004)", "T2 sequence (P04004 20-478)": "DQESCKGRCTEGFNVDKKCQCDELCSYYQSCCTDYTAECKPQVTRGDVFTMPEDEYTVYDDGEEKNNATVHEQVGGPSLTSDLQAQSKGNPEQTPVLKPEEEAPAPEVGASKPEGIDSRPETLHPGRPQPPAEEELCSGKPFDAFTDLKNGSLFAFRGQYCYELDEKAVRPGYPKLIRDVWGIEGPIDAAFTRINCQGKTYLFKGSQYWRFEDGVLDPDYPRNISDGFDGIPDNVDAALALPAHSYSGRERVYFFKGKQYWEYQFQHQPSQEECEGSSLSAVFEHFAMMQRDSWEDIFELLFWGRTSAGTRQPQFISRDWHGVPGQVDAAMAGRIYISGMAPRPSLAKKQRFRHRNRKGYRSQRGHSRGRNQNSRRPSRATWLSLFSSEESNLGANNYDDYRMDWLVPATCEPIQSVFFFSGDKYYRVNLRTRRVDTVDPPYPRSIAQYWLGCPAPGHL", "test": "ECM binding ELISA", "settings": "0-30 nM lacritin", "experimental": "as §1"}, "RelA (p65)": {"system": "RelA (p65)", "test": "Nuclear translocation of NF-kappaB subunit RelA (p65) in HSG cells", "type": "cell-based, human", "excerpt": "Nuclear translocation of this transcription factor has also been observed after lacritin treatment. Very little RelA was initially observed in the nuclear compartment in resting HSG cells."}}}
{"molecule": "B1", "values": [{"measurement": "binding to collagen I", "setting": "collagen I", "result": "No binding"}, {"measurement": "binding to collagen IV", "setting": "collagen IV", "result": "strong basement membrane binding"}, {"measurement": "binding to laminin-1", "setting": "laminin-1", "result": "strong basement membrane binding"}, {"measurement": "binding to nidogen/entactin", "setting": "nidogen/entactin", "result": "strong basement membrane binding"}, {"measurement": "binding to vitronectin", "setting": "vitronectin", "result": "remarkable avidity"}, {"measurement": "nuclear RelA at 4 hours", "setting": "RelA (p65); 4 hours after initial contact with lacritin", "result": "high level of RelA was still observed"}, {"measurement": "time of peak nuclear RelA", "setting": "RelA (p65); lacritin treatment", "result": "between 15 minutes to 1 hour"}, {"measurement": "time to detectable RelA in nucleus", "setting": "RelA (p65); lacritin treatment", "result": 1, "unit": "min"}]}
